Laboratory results: PMC7812869
Several values for one entry are separate records, joined by “and”; a condition that tells them apart may be missing. Identical values can stand only once.

Molecular target: 80S-like ribosomes (yeast | yeast (endogenous in the yeast strain)) (UniProt Q07381)
Test: co-sedimentation

UniProt Q07381, sequence (Q07381 whole entry, looked up): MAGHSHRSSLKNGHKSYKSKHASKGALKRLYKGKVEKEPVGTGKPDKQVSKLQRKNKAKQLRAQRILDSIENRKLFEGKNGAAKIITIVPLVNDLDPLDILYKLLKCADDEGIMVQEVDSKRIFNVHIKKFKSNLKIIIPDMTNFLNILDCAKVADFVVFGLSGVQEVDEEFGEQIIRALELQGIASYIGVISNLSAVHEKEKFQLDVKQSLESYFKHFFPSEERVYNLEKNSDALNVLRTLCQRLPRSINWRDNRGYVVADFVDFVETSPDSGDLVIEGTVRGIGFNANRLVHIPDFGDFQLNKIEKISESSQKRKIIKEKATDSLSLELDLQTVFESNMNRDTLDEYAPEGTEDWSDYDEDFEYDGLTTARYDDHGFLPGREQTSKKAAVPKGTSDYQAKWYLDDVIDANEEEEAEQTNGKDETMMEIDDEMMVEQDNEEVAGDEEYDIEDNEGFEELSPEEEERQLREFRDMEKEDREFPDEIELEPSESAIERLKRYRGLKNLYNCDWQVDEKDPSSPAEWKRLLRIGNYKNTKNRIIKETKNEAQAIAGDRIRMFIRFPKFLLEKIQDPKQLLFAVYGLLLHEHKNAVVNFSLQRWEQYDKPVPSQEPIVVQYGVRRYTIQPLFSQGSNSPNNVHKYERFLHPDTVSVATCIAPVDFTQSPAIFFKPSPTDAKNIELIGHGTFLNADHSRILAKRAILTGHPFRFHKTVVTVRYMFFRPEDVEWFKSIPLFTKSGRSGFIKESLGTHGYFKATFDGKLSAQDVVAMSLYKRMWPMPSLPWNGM

## Fap7+SUMO-Rps14 complex (from UniProt Q12055 1-197)
  fold change of bound Fap7 against Fap7 alone: 2 fold and 3 fold
